Assay results: patent US20220242963A1, “B-CELL ACTIVATING CD73 ANTIBODIES” (CORVUS PHARMACEUTICALS, INC., priority 2018, published 2022)
Where “and” joins values, the source holds several entries; their conditions need not be identical. Identical values can stand only once.

Columns and labels:
[1] = molecular target: T1, CD73 (Homo sapiens, UniProt P21589); test: Phase 1/1B clinical trial: CD73 receptor occupancy in peripheral blood by flow cytometry; type: in vivo; conditions: for sustained CD73 receptor occupancy in peripheral blood: once every 21 days
T1 construct: endogenous in cells; host or cells: Whole blood of cancer patients (CD73+ CD8 T cells)
T1 sequence (P21589 27-549): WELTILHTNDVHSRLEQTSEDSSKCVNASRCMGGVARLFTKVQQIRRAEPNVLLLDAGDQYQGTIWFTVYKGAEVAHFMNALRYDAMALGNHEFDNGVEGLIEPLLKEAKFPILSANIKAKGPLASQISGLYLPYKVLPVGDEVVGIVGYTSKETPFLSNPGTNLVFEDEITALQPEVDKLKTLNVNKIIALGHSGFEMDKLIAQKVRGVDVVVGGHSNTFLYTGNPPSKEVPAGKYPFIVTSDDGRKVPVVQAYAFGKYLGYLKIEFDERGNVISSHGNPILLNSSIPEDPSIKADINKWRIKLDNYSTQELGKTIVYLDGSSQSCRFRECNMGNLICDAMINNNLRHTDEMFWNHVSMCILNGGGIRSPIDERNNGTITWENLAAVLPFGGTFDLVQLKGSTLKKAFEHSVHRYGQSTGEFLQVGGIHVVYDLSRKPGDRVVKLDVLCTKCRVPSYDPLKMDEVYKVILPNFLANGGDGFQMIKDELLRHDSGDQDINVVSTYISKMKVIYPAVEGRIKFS
Experimental: FIGS. 3A-3D show the pharmacokinetics/pharmacodynamics and CD73 receptor occupancy of CPI-006 after a first infusion in human patients. […] The dotted line marks one-hundred percent occupancy CD73 receptor occupancy. […]
With reference to Table 1, serum samples were collected from patients treated with CPI-006 alone (i.e., monotherapy) and levels of free CPI-006 were measured by ELISA, as shown in FIG. 3A. Whole blood samples from patients treated with CPI-006 alone were fixed and receptor occupancy was measured by flow cytometry gating on CD73+CD8 T cells, as shown in FIG. 3B. As illustrated in FIGS. 3A-3D, receptor exposure to CPI-006 increases and clearance decreases with increasing doses of CPI-006, and CIP-006 is detectable for 21 days after administration of a single dose of 6 mg/kg or higher. […] Other results from the study are described below and in Table 4. BLQ is below limit of quantification. TBD is to be determined.

[2] = molecular target: T1, CD73; test: CD73 catalytic activity in MDA-MB-231 cells (phosphate, Sensolyte Malachite Green); type: cell-based; conditions: 250 μM AMP, FIG. 1B
Experimental: (§1) FIG. 1A provides a schematic of CD73 structure. […] Each symbol represents an independent donor.
(§2) MDA-MB-231 cells (e.g., available at ATCC® as HTB-26™) were incubated with a human IgG1 isotype control, CPI-006, CPX-016, or adenosine 5′-(α,β-methylene)diphosphate (also known as APCP, which is a small molecule inhibitor of CD73 enzymatic activity), prior to addition of 250 μM of adenosine monophosphate (AMP). Phosphate levels were measured in the cell culture supernatant using the Sensolyte Malachite Green assay kit. Peripheral blood mononuclear cells (PBMC) were isolated from healthy donors and labeled with CellTrace™ Violet (ThermoFisher Scientific) prior to culture with 1 μg/mL anti-CD3 and anti-CD28, 200 units/mL IL-2, 3 mM AMP and indicated treatments (CPI-006 at 500 nM; CPX-016 at 500 nM; human IgG1 isotype control at 890 nM). T cell proliferation was measured by Cell Trace Violet dilution and was defined by gating relative to unstimulated PBMC (FIG. 1C). IFN-gamma production was measured in cell culture supernatants by AlphaLISA (FIG. 1D). Results shown in FIGS. 1B-D illustrate that inhibition of CD73 activity has an agonistic effect on immunomodulatory activity.

[3] = molecular target: T1, CD73; test: CD73 enzymatic activity in MDA-MB-231 xenograft model; type: in vivo; conditions: MDA-MB-231 human TNBC xenograft model; FIG. 1F
Excerpt: as §1

[4] = system: PBMC; test: T cell proliferation and IFN-gamma secretion of healthy donor PBMC cultured with AMP; type: cell-based, human; conditions: CPI-006 at 500 nM, 3 mM AMP, anti-CD3 and anti-CD28, IL-2; FIGS. 1C-1D
Experimental: as §1, §2

[5] = pre-dose versus 30 minutes after administration, FIG. 3D

B1: CPI-006: humanized CD73 antibody, wherein the light chain is SEQ ID NO:8 and the heavy chain is SEQ ID NO:7; IgG1 Fcγ receptor-deficient (antibody, V domains shown)
VH: QVQLVQSGAEVEKPGASVKVSCKASGYTFTSYWITWVRQAPGQGLEWMGDIYPGSGNTNYNEKFKTRVTITADKSTSTAYMELSSLRSEDTAVYYCAKEGGLTTEDYALDYWGQGTLVTV
VL: EIVLTQSPATLSLSPGERATLSCRASKNVSTSGYSYMHWYQQKPGQAPRLLIYLASNLESGIPPRFSGSGYGTDFTLTINNIESEDAAYYFCQHSRELPFTFGQGTKVEIK
For B1, the “sustained CD73 receptor occupancy in peripheral blood” value ([1]; 1 mg/kg and 3 mg/kg doses) was “not”, the “CD73 receptor occupancy on peripheral B cells” value ([1]; 3 mg/kg, patients 4-6 (Pancreatic, Pancreatic, Prostate)) was 88.12% and 74.57% and 58.19% and the “sustained CD73 receptor occupancy in peripheral blood” value ([1]; 6 mg/kg and 12 mg/kg doses) was “sustained CD73 receptor occupancy”. For the same molecule, the “CD73 receptor occupancy on peripheral B cells” value ([1]; 6 mg/kg, patients 7-9 (Colorectal, Prostate, SCHN)) was 97.90% and 98.31% and 101.60%, the “receptor occupancy dose dependence” value ([1]; clinical data, 1, 3, and 6 mg/kg) was “dose proportional” and the “CPI-006 binding site on cell surface CD73 (free CD73)” value [1, 5] was “occupied”. For the same molecule, the “total cell surface CD73” value [1, 5] was “remains unchanged”, the “adenosine production (CD73 catalytic activity)” value [2] was “blocks adenosine production” and the “CD73 enzymatic activity in tumor xenograft” value [3] was “blocks CD73 enzymatic activity”. For the same molecule, the “adenosine-mediated immunosuppression (T-cell proliferation, IFN-gamma secretion)” value [4] was “relieves adenosine-mediate immunosuppression”.
